In this experiment the target is YukE with nsAA 2 (p-azidophenylalanine) incorporated at position 44, YukE(W44TAG) (B. subtilis) (UniProt C0SP85). The experiment can be described thus: cross-linking; in vivo photo-crosslinking through p-azidophenylalanine (nsAA 2) in B. subtilis cells resuspended in 1x PBS, UV 365 nm for 15 min or 60 min on ice; lysates on 17% SDS-PAGE without reductant, anti-YukE immunoblot. Background: A western blot detects proteins with antibodies after separation by electrophoresis.

For the substance “YukE with nsAA 2 (p-azidophenylalanine) incorporated at position 44, YukE(W44TAG) (from UniProt C0SP85 1-97) (natural protein)”, the crosslinking efficiency was determined as 100% and the stoichiometry N (usually the number of molecules, sites or subunits per partner or assembly) is 2.

For the origin of these results see PMC8440579.
